Results from the supplement of paper PMC6757056.
± gives the standard deviation of the averaged measurements.

B1: library; a variant is named by its letters at N, in order (parent)
chain: GCUGUCACCGGUGCUUGGUACGUUAUAUUCAGCCGGUCUGAUGAGUCUNNNNNNAGACGAAACAGC

How the values were obtained:
(6R,S)-folinic acid [1] = variants of: B1; assay: FACS-Seq fitted mean relative fluorescence mCherry/BFP without ligand (log10 relative fluorescence); HEK293T overexpressing SLC46A1; higher = higher reporter protein expression; conditions: without (6R,S)-folinic acid; ligand present: no
Method in brief: (§1)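 HEK293T libraries were lentivirally transduced with an mCherry reporter carrying the ribozyme switch and an EF1α-BFP marker, enriched, and incubated for 48 h with or without ligand before sorting into 6 bins by mCherry/BFP. Genomic DNA from each bin was PCR-amplified, barcoded and sequenced on MiSeq. Fluorescence is the fitted normal mean of the bin counts. The fit used log10(mCherry/BFP), and means were scaled to five spiked-in control ribozymes.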

(6R,S)-folinic acid [2] = variants of: B1; assay: normalized RNA/DNA level without ligand (relative to sTRSVctl = 100) (log10 (% of sTRSVctl)); HEK293T overexpressing SLC46A1; higher = less ribozyme self-cleavage, higher mRNA level; conditions: without (6R,S)-folinic acid; ligand present: no
Experimental: (§2)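 Hammerhead (sTRSV) ribozyme switch libraries with a ligand aptamer grafted on stem I and a randomized N4-6 loop II, cloned into the 3' UTR of mCherry and transiently transfected into HEK293T cells; RNA-Seq 72 h post transfection with ligand added 1 h before transfection; RNA read count / plasmid DNA read count normalized to the non-cleaving sTRSVctl (x100), log10; sequences with >100 DNA reads. FACS-Seq: lentiviral library sorted into 6 bins after 48 h ligand, log-normal fit mean of mCherry/BFP scaled to controls. Printed sequences are partial switch sequences.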

(6R,S)-folinic acid [3] = variants of: B1; assay: FACS-Seq fitted mean relative fluorescence mCherry/BFP with ligand (log10 relative fluorescence); HEK293T overexpressing SLC46A1; ligand concentration (+) FACS-Seq: 6 mM; higher = higher reporter protein expression; conditions: with (6R,S)-folinic acid; ligand present: yes
Method in brief: as §1

(6R,S)-folinic acid [4] = variants of: B1; assay: normalized RNA/DNA level with ligand (relative to sTRSVctl = 100) (log10 (% of sTRSVctl)); HEK293T overexpressing SLC46A1; ligand concentration (+) RNA-Seq: 6 mM; higher = less ribozyme self-cleavage, higher mRNA level; conditions: with (6R,S)-folinic acid; ligand present: yes
Experimental: as §2

Row | Variant | FACS-Seq fitted mean (log10) ((6R,S)-folinic acid [1]) | normalized RNA/DNA level without ligand (log10) ((6R,S)-folinic acid [2]) | FACS-Seq fitted mean (log10) ((6R,S)-folinic acid [3]) | normalized RNA/DNA level with ligand (log10) ((6R,S)-folinic acid [4])
1 | GCUGUCACCGGUGCUUGGUACGUUAUAUUCAGCCGGUCUGAUGAGUCUCACUGAAGACGAAACAGC [CACUGA] | 0.463 ± 0.077 | 2.012 ± 0.0079 | 0.325 ± 0.16 | 2.04 ± 0.028
2 | GCUGUCACCGGUGCUUGGUACGUUAUAUUCAGCCGGUCUGAUGAGUCUAACUACAGACGAAACAGC [AACUAC] | 0.381 ± 0.012 | 2 ± 0.021 | 0.181 ± 0.25 | 2.005 ± 0.02
3 | GCUGUCACCGGUGCUUGGUACGUUAUAUUCAGCCGGUCUGAUGAGUCUUACGUGAGACGAAACAGC [UACGUG] | 0.0454 ± 0.021 | 1.7 ± 0.018 | 0.518 ± 0.16 | 1.946 ± 0.011
4 | GCUGUCACCGGUGCUUGGUACGUUAUAUUCAGCCGGUCUGAUGAGUCUUACGGUAGACGAAACAGC [UACGGU] | 0.419 ± 0.099 | 1.918 ± 0.012 | 0.282 ± 0.041 | 1.98 ± 0.024
5 | GCUGUCACCGGUGCUUGGUACGUUAUAUUCAGCCGGUCUGAUGAGUCUUACGGGAGACGAAACAGC [UACGGG] | 0.198 ± 0.013 | 1.704 ± 0.0067 | 0.717 ± 0.3 | 1.97 ± 0.053
6 | GCUGUCACCGGUGCUUGGUACGUUAUAUUCAGCCGGUCUGAUGAGUCUUACGGAAGACGAAACAGC [UACGGA] | 0.537 ± 0.046 | 1.8816 ± 0.00018 | 0.817 ± 0.11 | 2 ± 0.029
7 | GCUGUCACCGGUGCUUGGUACGUUAUAUUCAGCCGGUCUGAUGAGUCUGACUACAGACGAAACAGC [GACUAC] | 0.495 ± 0.024 | 2.041 ± 0.011 | 0.191 ± 0.19 | 2.066 ± 0.016
8 | GCUGUCACCGGUGCUUGGUACGUUAUAUUCAGCCGGUCUGAUGAGUCUGACUAGAGACGAAACAGC [GACUAG] | 0.271 ± 0.048 | 1.934 ± 0.019 | 0.493 ± 0.089 | 2 ± 0.033
9 | GCUGUCACCGGUGCUUGGUACGUUAUAUUCAGCCGGUCUGAUGAGUCUGACUAUAGACGAAACAGC [GACUAU] | 0.375 ± 0.083 | 1.9961 ± 0.00078 | 0.557 ± 0.24 | 2.002 ± 0.0044
10 | GCUGUCACCGGUGCUUGGUACGUUAUAUUCAGCCGGUCUGAUGAGUCUGACUCCAGACGAAACAGC [GACUCC] | 0.513 ± 0.089 | 2.053 ± 0.012 | 0.583 ± 0.11 | 2.06 ± 0.013
11 | GCUGUCACCGGUGCUUGGUACGUUAUAUUCAGCCGGUCUGAUGAGUCUAACUCGAGACGAAACAGC [AACUCG] | 0.22 ± 0.034 | 1.998 ± 0.014 | 0.302 ± 0.52 | 1.99 ± 0.026
12 | GCUGUCACCGGUGCUUGGUACGUUAUAUUCAGCCGGUCUGAUGAGUCUUACUAUAGACGAAACAGC [UACUAU] | 0.437 ± 0.19 | 1.967 ± 0.018 | 0.489 ± 0.21 | 2.03 ± 0.023
13 | GCUGUCACCGGUGCUUGGUACGUUAUAUUCAGCCGGUCUGAUGAGUCUCACGUAAGACGAAACAGC [CACGUA] | 0.476 ± 0.1 | 1.989 ± 0.019 | 0.649 ± 0.35 | 2.01 ± 0.025
14 | GCUGUCACCGGUGCUUGGUACGUUAUAUUCAGCCGGUCUGAUGAGUCUAACGUUAGACGAAACAGC [AACGUU] | 0.445 ± 0.028 | 1.991 ± 0.012 | 0.286 ± 0.094 | 1.98 ± 0.038
15 | GCUGUCACCGGUGCUUGGUACGUUAUAUUCAGCCGGUCUGAUGAGUCUAACGUAAGACGAAACAGC [AACGUA] | 0.196 ± 0.079 | 1.9883 ± 0.00019 | 0.207 ± 0.071 | 2.02 ± 0.026
16 | GCUGUCACCGGUGCUUGGUACGUUAUAUUCAGCCGGUCUGAUGAGUCUAACGUGAGACGAAACAGC [AACGUG] | 0.4305 ± 0.0017 | 1.874 ± 0.0049 | 0.715 ± 0.2 | 1.98 ± 0.029
17 | GCUGUCACCGGUGCUUGGUACGUUAUAUUCAGCCGGUCUGAUGAGUCUGACGGUAGACGAAACAGC [GACGGU] | 0.318 ± 0.049 | 1.994 ± 0.016 | 0.486 ± 0.32 | 2.01 ± 0.029
18 | GCUGUCACCGGUGCUUGGUACGUUAUAUUCAGCCGGUCUGAUGAGUCUGACGGGAGACGAAACAGC [GACGGG] | 0.31 ± 0.087 | 1.99 ± 0.011 | 0.302 ± 0.24 | 2.04 ± 0.051
19 | GCUGUCACCGGUGCUUGGUACGUUAUAUUCAGCCGGUCUGAUGAGUCUGACGUAAGACGAAACAGC [GACGUA] | 0.251 ± 0.023 | 1.9997 ± 0.00027 | 0.131 ± 0.26 | 2.03 ± 0.038
20 | GCUGUCACCGGUGCUUGGUACGUUAUAUUCAGCCGGUCUGAUGAGUCUGACGUGAGACGAAACAGC [GACGUG] | 0.598 ± 0.2 | 1.946 ± 0.019 | 0.734 ± 0.17 | 2.01 ± 0.029
21 | GCUGUCACCGGUGCUUGGUACGUUAUAUUCAGCCGGUCUGAUGAGUCUAACUGAAGACGAAACAGC [AACUGA] | 0.445 ± 0.11 | 2.008 ± 0.0069 | 0.455 ± 0.17 | 2.02 ± 0.038
